Literature values in publication PMC6321638.

Molecular target: ALG-2 (Homo sapiens) (UniProt O75340)
Experiment: SPR

Sequence of ALG-2 (Homo sapiens) (O75340 2-191): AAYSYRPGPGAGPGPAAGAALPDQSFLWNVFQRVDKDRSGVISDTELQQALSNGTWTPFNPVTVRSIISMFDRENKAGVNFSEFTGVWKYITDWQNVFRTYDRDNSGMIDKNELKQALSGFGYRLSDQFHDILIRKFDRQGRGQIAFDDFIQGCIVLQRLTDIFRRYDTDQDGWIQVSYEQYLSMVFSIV

- Kd: 200 nM
Substance: ALIX peptide
